Experimental data taken from US20110166062A1 (INDIANA UNIVERSITY RESEARCH AND TECHNOLOGY, published 2011).
Bridges are numbered along the chain shown (N, C = ends). Where no end group is shown, it is not given here. [ ]: non-standard residue; d: D form. The star is where a group is joined. C18 fatty acyl = 18 carbon fatty acyl group covalently attached to Lys; PEG 40 kDa = PEG (40 kDa) covalently attached to Cys; Myristoyl = CCCCCCCCCCCCCC(=O)*; Abu = CC[C@H](N)C(=O)O; Aib = CC(C)(N)C(=O)O

T1: GIP receptor (UniProt P48546 22-466)
T1 sequence (looked up): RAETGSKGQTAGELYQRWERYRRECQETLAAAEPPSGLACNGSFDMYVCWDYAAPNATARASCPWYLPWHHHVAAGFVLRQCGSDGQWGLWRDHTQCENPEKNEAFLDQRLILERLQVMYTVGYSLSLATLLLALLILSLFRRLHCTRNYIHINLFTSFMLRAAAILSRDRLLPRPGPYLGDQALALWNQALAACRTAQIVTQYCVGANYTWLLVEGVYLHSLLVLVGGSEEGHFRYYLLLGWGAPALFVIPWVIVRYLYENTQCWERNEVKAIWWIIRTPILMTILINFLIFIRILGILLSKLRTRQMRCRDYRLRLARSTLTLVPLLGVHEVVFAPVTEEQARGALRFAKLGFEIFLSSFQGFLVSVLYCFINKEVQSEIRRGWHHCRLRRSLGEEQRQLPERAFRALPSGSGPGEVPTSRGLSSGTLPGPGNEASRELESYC

T2: GIP receptor (UniProt P48546 22-466)
T2 sequence (looked up): T1 sequence (looked up)

B1: mt-197 (peptide)
peptide: GTFTSDYSIYLDEQAAKEFVNWLLAG-NH2
modifications: lactam 13-17; N-terminus assumed
SMILES: CC[C@H](C)[C@H](NC(=O)[C@H](CO)NC(=O)[C@H](Cc1ccc(O)cc1)NC(=O)[C@H](CC(=O)O)NC(=O)[C@H](CO)NC(=O)[C@@H](NC(=O)[C@H](Cc1ccccc1)NC(=O)[C@@H](NC(=O)CN)[C@@H](C)O)[C@@H](C)O)C(=O)N[C@@H](Cc1ccc(O)cc1)C(=O)N[C@@H](CC(C)C)C(=O)N[C@@H](CC(=O)O)C(=O)N[C@H]1CCC(=O)NCCCC[C@@H](C(=O)N[C@@H](CCC(=O)O)C(=O)N[C@@H](Cc2ccccc2)C(=O)N[C@H](C(=O)N[C@@H](CC(N)=O)C(=O)N[C@@H](Cc2c[nH]c3ccccc23)C(=O)N[C@@H](CC(C)C)C(=O)N[C@@H](CC(C)C)C(=O)N[C@@H](C)C(=O)NCC(N)=O)C(C)C)NC(=O)[C@H](C)NC(=O)[C@H](C)NC(=O)[C@H](CCC(N)=O)NC1=O
B2: mt-194 (peptide)
peptide: [Aib]QGTFTSDYSIYLDEEAVRLFVNWLLAGGPSSGAPPPS-NH2
modifications: N-terminus assumed
SMILES: CC[C@H](C)[C@H](NC(=O)[C@H](CO)NC(=O)[C@H](Cc1ccc(O)cc1)NC(=O)[C@H](CC(=O)O)NC(=O)[C@H](CO)NC(=O)[C@@H](NC(=O)[C@H](Cc1ccccc1)NC(=O)[C@@H](NC(=O)CNC(=O)[C@H](CCC(N)=O)NC(=O)C(C)(C)N)[C@@H](C)O)[C@@H](C)O)C(=O)N[C@@H](Cc1ccc(O)cc1)C(=O)N[C@@H](CC(C)C)C(=O)N[C@@H](CC(=O)O)C(=O)N[C@@H](CCC(=O)O)C(=O)N[C@@H](CCC(=O)O)C(=O)N[C@@H](C)C(=O)N[C@H](C(=O)N[C@@H](CCCNC(=N)N)C(=O)N[C@@H](CC(C)C)C(=O)N[C@@H](Cc1ccccc1)C(=O)N[C@H](C(=O)N[C@@H](CC(N)=O)C(=O)N[C@@H](Cc1c[nH]c2ccccc12)C(=O)N[C@@H](CC(C)C)C(=O)N[C@@H](CC(C)C)C(=O)N[C@@H](C)C(=O)NCC(=O)NCC(=O)N1CCC[C@H]1C(=O)N[C@@H](CO)C(=O)N[C@@H](CO)C(=O)NCC(=O)N[C@@H](C)C(=O)N1CCC[C@H]1C(=O)N1CCC[C@H]1C(=O)N1CCC[C@H]1C(=O)N[C@@H](CO)C(N)=O)C(C)C)C(C)C
B3: mt-324 (peptide)
peptide: Y[Aib]QGTFSSDYSIYLDKQAA[Aib]EFVNWLLAGGPSSGAPPPSC-NH2
modifications: N-terminus assumed
SMILES: CC[C@H](C)[C@H](NC(=O)[C@H](CO)NC(=O)[C@H](Cc1ccc(O)cc1)NC(=O)[C@H](CC(=O)O)NC(=O)[C@H](CO)NC(=O)[C@H](CO)NC(=O)[C@H](Cc1ccccc1)NC(=O)[C@@H](NC(=O)CNC(=O)[C@H](CCC(N)=O)NC(=O)C(C)(C)NC(=O)[C@@H](N)Cc1ccc(O)cc1)[C@@H](C)O)C(=O)N[C@@H](Cc1ccc(O)cc1)C(=O)N[C@@H](CC(C)C)C(=O)N[C@@H](CC(=O)O)C(=O)N[C@@H](CCCCN)C(=O)N[C@@H](CCC(N)=O)C(=O)N[C@@H](C)C(=O)N[C@@H](C)C(=O)NC(C)(C)C(=O)N[C@@H](CCC(=O)O)C(=O)N[C@@H](Cc1ccccc1)C(=O)N[C@H](C(=O)N[C@@H](CC(N)=O)C(=O)N[C@@H](Cc1c[nH]c2ccccc12)C(=O)N[C@@H](CC(C)C)C(=O)N[C@@H](CC(C)C)C(=O)N[C@@H](C)C(=O)NCC(=O)NCC(=O)N1CCC[C@H]1C(=O)N[C@@H](CO)C(=O)N[C@@H](CO)C(=O)NCC(=O)N[C@@H](C)C(=O)N1CCC[C@H]1C(=O)N1CCC[C@H]1C(=O)N1CCC[C@H]1C(=O)N[C@@H](CO)C(=O)N[C@@H](CS)C(N)=O)C(C)C
B4: mt-325 (peptide)
peptide: Y[Aib]QGTF[Abu]SDYSIYLDKQAA[Aib]EFVNWLLAGGPSSGAPPPSC-NH2
modifications: N-terminus assumed
SMILES: CC[C@H](NC(=O)[C@H](Cc1ccccc1)NC(=O)[C@@H](NC(=O)CNC(=O)[C@H](CCC(N)=O)NC(=O)C(C)(C)NC(=O)[C@@H](N)Cc1ccc(O)cc1)[C@@H](C)O)C(=O)N[C@@H](CO)C(=O)N[C@@H](CC(=O)O)C(=O)N[C@@H](Cc1ccc(O)cc1)C(=O)N[C@@H](CO)C(=O)N[C@H](C(=O)N[C@@H](Cc1ccc(O)cc1)C(=O)N[C@@H](CC(C)C)C(=O)N[C@@H](CC(=O)O)C(=O)N[C@@H](CCCCN)C(=O)N[C@@H](CCC(N)=O)C(=O)N[C@@H](C)C(=O)N[C@@H](C)C(=O)NC(C)(C)C(=O)N[C@@H](CCC(=O)O)C(=O)N[C@@H](Cc1ccccc1)C(=O)N[C@H](C(=O)N[C@@H](CC(N)=O)C(=O)N[C@@H](Cc1c[nH]c2ccccc12)C(=O)N[C@@H](CC(C)C)C(=O)N[C@@H](CC(C)C)C(=O)N[C@@H](C)C(=O)NCC(=O)NCC(=O)N1CCC[C@H]1C(=O)N[C@@H](CO)C(=O)N[C@@H](CO)C(=O)NCC(=O)N[C@@H](C)C(=O)N1CCC[C@H]1C(=O)N1CCC[C@H]1C(=O)N1CCC[C@H]1C(=O)N[C@@H](CO)C(=O)N[C@@H](CS)C(N)=O)C(C)C)[C@@H](C)CC

biological target: glucagon receptor (UniProt P47871 26-477, limits assumed); test: cell-based or functional assay
Target sequence in this assay (P47871 26-477 limits assumed): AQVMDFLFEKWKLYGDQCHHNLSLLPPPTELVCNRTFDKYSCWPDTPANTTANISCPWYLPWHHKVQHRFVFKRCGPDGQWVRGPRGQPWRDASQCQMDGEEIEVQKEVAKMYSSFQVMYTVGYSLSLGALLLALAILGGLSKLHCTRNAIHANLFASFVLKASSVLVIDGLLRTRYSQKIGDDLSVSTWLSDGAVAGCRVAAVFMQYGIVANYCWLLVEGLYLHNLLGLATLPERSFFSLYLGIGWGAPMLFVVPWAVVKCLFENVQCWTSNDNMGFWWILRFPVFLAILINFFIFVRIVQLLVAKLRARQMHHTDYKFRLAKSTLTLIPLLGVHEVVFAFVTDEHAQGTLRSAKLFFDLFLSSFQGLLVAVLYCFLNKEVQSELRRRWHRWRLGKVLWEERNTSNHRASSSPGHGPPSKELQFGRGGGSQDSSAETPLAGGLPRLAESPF

Binder	EC50	relative activity
Y[Aib]QGTFTSDYSIYLDEQAAKEFVC(PEG 40 kDa)WLLAG-NH2 (lactam 16-20) [mt-172]	9.16 nM	0.45%
B1	47.7 nM	0.13%

biological target: GLP-1 receptor (UniProt P43220 24-463, limits assumed); test: cell-based or functional assay

Binder	EC50	relative activity
Y[Aib]QGTFTSDYSIYLDEQAAKEFVC(PEG 40 kDa)WLLAG-NH2 (lactam 16-20) [mt-172]	0.859 nM	3.43%
Y[Aib]QGTFISDYSIYLDEQAAKEFVNWLLAGGPSSGAPPPSC(PEG 40 kDa)-NH2 (lactam 16-20) [mt-182]	10 nM	–
FTSDYSIYLDEQAAKEFVNWLLAGGPSSGAPPPS-NH2 (not fully specified) [mt-192]	47 nM	0.06%
B2	4.16 nM	0.63%
B1	35.3 nM	0.07%

biological target: T1, GIP receptor; test: cell-based or functional assay

Binder	EC50	relative activity
Y[Aib]QGTFTSDYSIYLDEQAAKEFVC(PEG 40 kDa)WLLAG-NH2 (lactam 16-20) [mt-172]	7.54 nM	0.25%
Y[Aib]QGTFISDYSIYLDEQAAKEFVNWLLAGGPSSGAPPPSC(PEG 40 kDa)-NH2 (lactam 16-20) [mt-182]	0.08 nM	–

biological target: glucagon receptor (UniProt P47871 26-477, limits assumed); test: cell-based or functional assay; remark: another data set of the same source
Target sequence in this assay (P47871 26-477 limits assumed): as the sequence (P47871 26-477 limits assumed) above

Binder	EC50	relative activity
Y[Aib]EGTFTSDYSIYLDKQAA[Aib]EFVC(PEG 40 kDa)WLLAGGPSSGAPPPSK(Myristoyl)-NH2 [mt-309]	3.61 nM	1.77%
Y[Aib]EGTFTSDYSIYLDKQAA[Aib]EFVC(PEG 40 kDa)WLLAGGPSSGAPPPSK(C18 fatty acyl)-NH2 [mt-310]	0.775 nM	8.24%
Y[Aib]EGTFTSDYSIYLDKQAA[Aib]EFVC(PEG 40 kDa)WLLAGGPSSGAPPPSK-NH2 (not fully specified) [mt-311]	197 nM	0.03%
B3	1.23 nM	6.41%
B4	0.0915 nM	86.5%
Y[Aib]EGTFTSDYSIYLDKQAA[Aib]EFVC(PEG 40 kDa)WLLAGGPSSGAPPPSK-NH2 (also: PEG linkage structure not given here) [mt-331]	408 nM	0.02%
Y[Aib]EGTFTSDYSIYLDKQAA[Aib]EFVNWLLAGGPSSGAPPPSK(Myristoyl)C-NH2 [mt-339]	8.72 nM	–
Y[Aib]EGTFTSDYSIYLDKQAA[Aib]EFVNWLLAGGPSSGAPPPSKC-NH2 [mt-340]	10.5 nM	–

biological target: GLP-1 receptor (UniProt P43220 24-463, limits assumed); test: cell-based or functional assay; remark: another data set of the same source

Binder	EC50	relative activity
Y[Aib]EGTFTSDYSIYLDKQAA[Aib]EFVC(PEG 40 kDa)WLLAGGPSSGAPPPSK(Myristoyl)-NH2 [mt-309]	0.0104 nM	151%
Y[Aib]EGTFTSDYSIYLDKQAA[Aib]EFVC(PEG 40 kDa)WLLAGGPSSGAPPPSK(C18 fatty acyl)-NH2 [mt-310]	0.0062 nM	253%
Y[Aib]EGTFTSDYSIYLDKQAA[Aib]EFVC(PEG 40 kDa)WLLAGGPSSGAPPPSK-NH2 (not fully specified) [mt-311]	0.217 nM	7.22%
B3	0.23 nM	9.68%
B4	2.68 nM	0.83%
Y[Aib]EGTFTSDYSIYLDKQAA[Aib]EFVC(PEG 40 kDa)WLLAGGPSSGAPPPSK-NH2 (also: PEG linkage structure not given here) [mt-331]	0.448 nM	4.53%
Y[Aib]EGTFTSDYSIYLDKQAA[Aib]EFVNWLLAGGPSSGAPPPSK(Myristoyl)C-NH2 [mt-339]	0.0092 nM	–
Y[Aib]EGTFTSDYSIYLDKQAA[Aib]EFVNWLLAGGPSSGAPPPSKC-NH2 [mt-340]	0.0061 nM	–

biological target: T2, GIP receptor; test: cell-based or functional assay

Binder	EC50	relative activity
Y[Aib]EGTFTSDYSIYLDKQAA[Aib]EFVC(PEG 40 kDa)WLLAGGPSSGAPPPSK(Myristoyl)-NH2 [mt-309]	0.0091 nM	226%
Y[Aib]EGTFTSDYSIYLDKQAA[Aib]EFVC(PEG 40 kDa)WLLAGGPSSGAPPPSK(C18 fatty acyl)-NH2 [mt-310]	0.0075 nM	275%
Y[Aib]EGTFTSDYSIYLDKQAA[Aib]EFVC(PEG 40 kDa)WLLAGGPSSGAPPPSK-NH2 (not fully specified) [mt-311]	0.0545 nM	37.8%
B3	0.0387 nM	30.2%
B4	0.0105 nM	111%
Y[Aib]EGTFTSDYSIYLDKQAA[Aib]EFVC(PEG 40 kDa)WLLAGGPSSGAPPPSK-NH2 (also: PEG linkage structure not given here) [mt-331]	0.0968 nM	10.6%
Y[Aib]EGTFTSDYSIYLDKQAA[Aib]EFVNWLLAGGPSSGAPPPSK(Myristoyl)C-NH2 [mt-339]	0.004 nM	–
Y[Aib]EGTFTSDYSIYLDKQAA[Aib]EFVNWLLAGGPSSGAPPPSKC-NH2 [mt-340]	0.0028 nM	–
